Test results as given in US20180362629A1 (ZOETIS BELGIUM S A, published 2018).
“And” between values parts separate entries of the source, which are not always exact repeats. Identical values can stand only once.

How the values were obtained:
[1] = biological target: human β NGF (R&D Systems catalog #256-GF/CF) (human) (UniProt P01138); experiment: cell-based or functional assay
[2] = biological target: T1, biotinylated rat β NGF (rat, UniProt P25427 122-241, limits assumed, biotinylated); experiment: capture ELISA; supernatant 625-fold
T1 construct: also called Biotinylated Rat NGF; rat NGF
T1 sequence (P25427 122-241 limits assumed): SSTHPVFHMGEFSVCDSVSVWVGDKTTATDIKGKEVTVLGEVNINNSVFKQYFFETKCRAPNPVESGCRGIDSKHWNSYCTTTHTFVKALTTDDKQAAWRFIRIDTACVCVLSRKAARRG
Procedure: (§1) The plates were washed three times with wash buffer. The plates were blocked with 200 μl of 2% milk and incubated for 1 hour at room temperature. The plates were washed as above. […] The positive control was crude sera (diluted 1:500 with PBS) isolated from a β NGF immunized mouse and the negative control was hybridoma supernatant derived from a mouse immunized with an antigen other than NGF. The plates were washed and then 50 μl of biotinylated human or rat β NGF at 50 ng/ml was added and incubated for 1 hour at room temperature. The plates were washed. […] The plates were incubated for 30 minutes at room temperature. The plates were washed and then TMB substrate (Invitrogen, catalog #00-2023) was added. The reaction was stopped using 2N H₂SO₄ (VWR, catalog # BDH3500-1). The absorbance at 450 nm was read on a Spectromax 2E plate reader (Molecular Devices); these absorbance readings are shown in Tables 1 and 2. The numerical value indicates binding of mouse anti-NGF antibodies to biotinylated human or rat β NGF.

[3] = biological target: T2, biotinylated human β NGF (human, UniProt P01138 122-241, biotinylated); experiment: capture ELISA; supernatant 625-fold
T2 construct: also called Biotinylated Human NGF; human NGF
T2 sequence (P01138 122-241 limits assumed): as the sequence (P25427 122-241 limits assumed) above, with T3S, V6I, M9R, T37M, A60D, E65D, T92M, D94G, A117V, G120A counted along it
Procedure: as §1

[4] = biological target: T1, biotinylated rat β NGF; experiment: capture ELISA; supernatant 125-fold
Procedure: as §1

[5] = biological target: T2, biotinylated human β NGF; experiment: capture ELISA; supernatant 125-fold
Procedure: as §1

[6] = biological target: T1, biotinylated rat β NGF; experiment: capture ELISA; supernatant 25-fold
Procedure: as §1

[7] = biological target: T2, biotinylated human β NGF; experiment: capture ELISA; supernatant 25-fold
Procedure: as §1

[8] = biological target: T1, biotinylated rat β NGF; experiment: capture ELISA; supernatant 5-fold
Procedure: as §1

[9] = biological target: T2, biotinylated human β NGF; experiment: capture ELISA; supernatant 5-fold
Procedure: as §1

[10] = biological target: T3, recombinant canine β NGF (canine, UniProt Q29074 110-229 (pig entry)); experiment: cell-based or functional assay
T3 chain: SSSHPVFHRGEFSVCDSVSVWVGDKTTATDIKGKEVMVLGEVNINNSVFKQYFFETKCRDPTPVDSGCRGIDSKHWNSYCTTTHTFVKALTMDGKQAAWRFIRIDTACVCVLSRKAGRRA

[11] = biological target: T4, recombinant canine β NGF (canine, UniProt Q29074 110-229 (pig entry)); experiment: cell-based or functional assay
T4 chain: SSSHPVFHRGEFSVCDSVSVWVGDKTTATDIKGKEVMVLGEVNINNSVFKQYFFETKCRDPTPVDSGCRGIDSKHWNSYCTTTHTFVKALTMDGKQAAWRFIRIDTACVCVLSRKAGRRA

[12] = biological target: T4, recombinant canine β NGF; experiment: SPR (Biacore T100), antibody captured on goat anti-canine IgG, canine NGF injected
Procedure: Purified mouse/canine chimeric antibodies and caninized antibodies were analyzed for affinity to canine NGF using a Biacore T100 instrument. Goat anti Canine IgG (Southern Biotech) was immobilized at 5000-10000 RU on a CM5 chip using an amine coupling procedure according to the manufacturer's instructions (Biacore). […] The association rate was monitored for 5 min and the dissociation rate was monitored for 10-20 min. The chip surface was regenerated using 50-75 ul 10 mM glycine pH 1.5 at a flow rate of 50-100 ul/min. Data was analyzed using Biaevaluation T100 software version 2.0.2, software, GE Healthcare Life Sciences (Piscataway, N.J.). Overall affinity parameters established for mouse/canine chimeric antibodies is summarized in Table 22 and for caninized antibodies in Table 23. […] The overall KDs of the mouse/canine anti-NGF mAbs range from about 1300 pM to 1.6 pM. […] The overall KDs of the caninized anti-NGF mAbs range from about 42 pM to 1.2 pM.

[13] = biological target: T5, human β NGF (human, UniProt P01138 122-241, biotinylated in the TrkA inhibition ELISA (sites not given)); experiment: TrkA inhibition ELISA; biotin-hNGF bound to rat TrkA/Fc; supernatant 25-fold
T5 construct: Bought (R&D Systems 256-GF/CF); also called Human NGF; biotinylated human NGF
T5 sequence (P01138 122-241 limits assumed): as the sequence (P25427 122-241 limits assumed) above, with T3S, V6I, M9R, T37M, A60D, E65D, T92M, D94G, A117V, G120A counted along it
Procedure: (§2) The plates were washed three times with PBS/Tween. The plates were blocked with 200 μl/well of 2% milk in PBS for 1 hour at room temperature. The plates were washed three times as above. Rat TrkA/Fc chimera (R&D Systems, catalog #1056-TK) was added at 1 μg/ml (50 μl/well) in PBS/0.1% BSA and then incubated for 1 hour at room temperature. Biotinylated human NGF was titered and pre-incubated with anti-NGF antibody supernatants diluted 1-fold, 5-fold, and 25-fold, or purified anti-NGF mAbs diluted to 0.08, 0.4, 2, or 10 μg/ml for 1 hour at room temperature on a plate shaker. The negative control was unrelated conditioned supernatant. The positive control was sera from a mouse immunized with NGF. The plates were washed and then 50 μl of each biotinylated NGF/Ab mix was added to the appropriate wells. The plates were incubated for 1 hour at room temperature. The plates were washed. […] The plates were incubated for 30 min at room temperature. The plates were washed. 50 μl of TMB (Invitrogen, cat #00-2023) was added and the reaction was stopped using 2N H₂SO₄ (VWR, cat # BDH3500-1). The absorbance at 450 nm was read on a Spectromax 2E plate reader (Molecular Devices), and the absorbance readings are shown in Table 5 The numerical value indicates binding of biotinylated human β NGF to rat TrkA/Fc chimera.

[14] = biological target: T5, human β NGF; experiment: cell-based or functional assay
[15] = biological target: T5, human β NGF; experiment: TrkA inhibition ELISA; biotin-hNGF bound to rat TrkA/Fc; supernatant 1-fold
Procedure: as §2

[16] = biological target: T5, human β NGF; experiment: TrkA inhibition ELISA; biotin-hNGF bound to rat TrkA/Fc; supernatant 5-fold
Procedure: as §2

[17] = biological target: recombinant canine β NGF (canine); experiment: cell-based or functional assay

human β NGF (R&D Systems catalog #256-GF/CF) (human), sequence (P01138 122-241 limits assumed): as the sequence (P25427 122-241 limits assumed) above, with T3S, V6I, M9R, T37M, A60D, E65D, T92M, D94G, A117V, G120A counted along it

Molecule	absorbance at 450 nm [2]	absorbance at 450 nm [3]	absorbance at 450 nm [4]	absorbance at 450 nm [5]	absorbance at 450 nm [6]	absorbance at 450 nm [7]	absorbance at 450 nm [8]	absorbance at 450 nm [9]	PathHunter IC50 (441 pM canine NGF) [10]	SureFire cellular pERK IC50 (128 pM canine NGF) [10]	further results
Unrelated hybridoma (antibody)	–	–	–	–	–	–	–	–	–	–	PathHunter % of max signal, supernatant 1000-fold [1]: 136% and 144%; PathHunter % of max signal, supernatant 5000-fold [1]: 126% and 132%; PathHunter % of max signal, supernatant 10000-fold [1]: 138% and 137%
PR-1254980 (antibody, mouse IgG1, V domains shown, also called 23F1; ML129-23F1.4G3) VH: EVQLQQSGAELVKPGASVKLSCTASGFNIKDTYIYWVKQRPEQGLEWIGRIDPANGNTIYASKFQGKATITADTSSNTAYMQLSSLTSGDTAVYYCAGYGYYAYWGQGTTLTVSS VL: DVVLTQTPLSLPVNIGDQASISCKSTKSLLNGDGFTYLDWYLQKPGQSPQLLIYLVSNRFSGVPDRFSGSGSGTDFTLKISRVEAEDLGVYYCFESNYLFTFGSGTKLEMKR	0.528	0.696	0.737	0.979	0.767	1.17	0.764	1.14	< 1 nM	< 1 nM	–
PR-1254977 (antibody, mouse IgG1, V domains shown, also called 21D4; ML129-21D4.4A11) VH: EVQLQQSGAELVKPGASVKLSCTASGFNIKDTYIYWVKQRPEQGLEWIGRIDPANGNTIYASKFQGKASITADTSSNTAYMQLSSLTSGDTAVYYCAGYGYYAYWGQGTTLTVSS VL: DVVLTQTPLSLPVNIGDQASISCKSTKSLLNGDGFTYLDWYLQKPGQSPQLLIYLVSNRFSGVPDRFSGSGSGTDFTLKISRVEAEDLGVYYCFESNYLFTFGSGTKLEMKR	0.453	0.543	0.671	0.899	0.76	1.04	0.787	1.15	< 1 nM	< 1 nM	–
Mu82 Canine IgG1/k Chimera (antibody, V domains shown, The exact junction was not checked; also called PR-1290658; lot 1785732) VH: QVQLKESGPGLVAPSQSLSITCTVSGFSLTGYNINWVRQPPGKGLEWLGMIWGYGDTDYNSALKSRLSISKDNSKSQVFLKMNSLQTDDTARYYCARDHYGGNDWYFDVWGTGTTVTVSS VL: DIQMTQTTSSLSASLGDRVTITCRASQDITNYLNWYQQKPDGTVKLLIYYTSRLHSGVPSRFSGSGSGTDYSLTISNLDQEDIATYFCQQGKTLPRTFGGGTKLEIKR	–	–	–	–	–	–	–	–	–	–	IC50, canine NGF-induced TF-1 cell proliferation (70 pM canine NGF) [11]: 7 pM; Kd [12]: 0.0016 nM; koff [12]: 1.4e-05 s⁻¹
2B12 hybridoma supernatant (antibody, mouse IgG2b, V domains shown, Tested as supernatant of the hybridoma before subcloning; mouse IgG2b kappa; also called ML129-2B12.5G9) VH: QVQLQQPGAELVKPGASVKLSCKASGYTFTNYWMHWVKQRPGQGLEWIGRIDPYGGGTKHNEKFKRKATVTADKSSSTAYILLSSLTSEDSAVYYCTRSGYDYYFDVWGTGTTVTVSS VL: DIQMTQSPASLSASVGETVTVTCRASENIYSFLAWHQQKQGKSPQLLVYNANTLAEGVPSRFSGSGSGTQFSLKINSLQPEDFGSYYCQHHFGTPFTFGSGTKLEIKR	–	–	–	–	–	–	–	–	–	–	absorbance at 450 nm [13]: 0.095 OD450; SureFire pERK, % of maximum signal; supernatant 1000-fold [14]: 0%; absorbance at 450 nm [15]: 0.065 OD450; absorbance at 450 nm [16]: 0.07 OD450
Mu72 Canine IgG1/k Chimera (antibody, V domains shown, also called PR-1290646; lot 1785614) VH: EVHLVESGGGLVKPGGFLILSCAASGFTFSDYYMFWIRQTPGKRLEWVATISDGGSYTYYTDNVKGRFTISRDNVKNNLYLQMSHLKSADTAMYYCARDWSDSEGFAYWGQGTLVTVSA VL: DVLMTQTPLSLPVSLGDQASISCRSSQSIVQSNGNTYLEWYLQKPGQSPKLLIYKVSNRFSGVPDRFSGSGSGTDFTLKISRVEAEDLGVYYCFQGSHVPFTFGSGTKLEIKR	–	–	–	–	–	–	–	–	–	–	TF-1 cell proliferation potency (70 pM canine NGF) [17]: < 50 pM; IC50, canine NGF-induced TF-1 cell proliferation (70 pM canine NGF) [11]: 41 pM; Kd [12]: 1.3 nM; koff [12]: 0.0038 s⁻¹
PR-1254972 (antibody, mouse IgG2b, V domains shown, also called 20B10; ML129-20B10.3F4) VH: EVHLVESGGGLVKPGGFLILSCAASGFTFSDYYMFWIRQTPGKRLEWVATISDGGSYTYYTDNVKGRFTISRDNVKNNLYLQMSHLKSADTAMYYCARDWSDSEGFAYWGQGTLVTVSA VL: DVLMTQTPLSLPVSLGDQASISCRSSQSIVQSNGNTYLEWYLQKPGQSPKLLIYKVSNRFSGVPDRFSGSGSGTDFTLKISRVEAEDLGVYYCFQGSHVPFTFGSGTKLEIKR	0.108	0.143	0.261	0.576	0.431	0.997	0.472	1.1	< 1 nM	< 1 nM	–
